Data reported in patent US20240360203A1 (GENERATE BIOMEDICINES, published 2024).
Where a chain is given by its changes, count along the chain named. Read-outs that look alike come from different tables or passages of the source.

What was measured:
Assay in all cases: cell-based or functional assay
[1] = target: T1, SARS-CoV-2 Delta Spike on pseudovirus (SARS-CoV-2, UniProt P0DTC2 14-1273)
[2] = target: T2, SARS-CoV-2 BA.2 Spike on pseudovirus (SARS-CoV-2, UniProt P0DTC2 14-1273)
[3] = target: T3, SARS-CoV-2 BA.4/5 Spike on pseudovirus (SARS-CoV-2, UniProt P0DTC2 14-1273)
[4] = target: T4, SARS-CoV-2 BA.2.12.1 Spike on pseudovirus (SARS-CoV-2, UniProt P0DTC2 14-1273)
[5] = target: T5, SARS-CoV-2 BA.1 Spike on pseudovirus (SARS-CoV-2, UniProt P0DTC2 14-1273)
[6] = target: T3, SARS-CoV-2 BA.4/5 Spike on pseudovirus; remark: listed apart in the source
[7] = target: T1, SARS-CoV-2 Delta Spike on pseudovirus; remark: listed apart in the source
[8] = target: T2, SARS-CoV-2 BA.2 Spike on pseudovirus; remark: listed apart in the source
[9] = target: T3, SARS-CoV-2 BA.4/5 Spike on pseudovirus; remark: listed apart in the source
[10] = target: T4, SARS-CoV-2 BA.2.12.1 Spike on …; remark: listed apart in the source
[11] = target: T5, SARS-CoV-2 BA.1 Spike on pseudovirus; remark: listed apart in the source
[12] = target: T1, SARS-CoV-2 Delta Spike on pseudovirus; remark: listed apart in the source
[13] = target: T2, SARS-CoV-2 BA.2 Spike on pseudovirus; remark: listed apart in the source
[14] = target: T3, SARS-CoV-2 BA.4/5 Spike on pseudovirus; remark: listed apart in the source
[15] = target: T4, SARS-CoV-2 BA.2.12.1 Spike on …; remark: listed apart in the source

B1: AB-1 (antibody, V domains shown)
VH: EVQLVESGAEVKKPGESLKISCKGSGYTFTRYWIGWVRQMPGKGLEWMGIIYPGDSDVRYSPSFQGHVTISADKSISTAYLQWNSLKASDTAMYYCARLPQYCSKGVCYRWFDPWGQGTLVTVSS
VL: EIVLTQSPSSVSASVGDRVTITCRASQGISSWLAWYQQKPGKAPKLLIYAASSLQSGVPSRFSGSGSGTDFTLTISSLQPEDFATYYCQQGHSFPYTFGQGTNLEIK
For B1, the “% neutralization at 4.5 µg/ml, pseudovirus” value (“% neutralization at 4.5 µg/ml” below) [1] was 99.5%, the “% neutralization at 4.5 µg/ml” value [2] was 89.9% and the “% neutralization at 4.5 µg/ml” value [3] was 90.4%. For the same binder, the “% neutralization at 4.5 µg/ml” value [4] was 89.2%, the “% neutralization at 4.5 µg/ml” value [5] was 96.5% and the “IC50, pseudovirus neutralization” value [6] was 0.0101 µg/mL. For the same binder, the “IC50, pseudovirus neutralization” value [7] was 0.0139 µg/mL, the “IC50, pseudovirus neutralization” value [8] was 0.0219 µg/mL and the “IC50, pseudovirus neutralization” value [9] was 0.0278 µg/mL. For the same binder, the “IC50, pseudovirus neutralization” value [10] was 0.0133 µg/mL, the “IC50, pseudovirus neutralization” value [11] was 0.0088 µg/mL and the “IC50, pseudovirus neutralization” value [12] was 0.034 µg/mL. The “IC50, pseudovirus neutralization” value [13] was 0.031 µg/mL and the “IC50, pseudovirus neutralization” value [14] was 0.075 µg/mL.

B2: Reference Antibody (antibody, V domains shown)
VH: B1 VH with V58T, K105N, Y109Q
VL: B1 VL with H92N
B2 was tested, and the “% neutralization at 4.5 µg/ml” value [1] was 93.9%, the “% neutralization at 4.5 µg/ml” value [2] was 74.5% and the “% neutralization at 4.5 µg/ml” value [3] was 74.4%. The “% neutralization at 4.5 µg/ml” value [5] was 91.9%, the “IC50, pseudovirus neutralization” value [7] was 0.0681 µg/mL and the “IC50, pseudovirus neutralization” value [8] was 0.0941 µg/mL. For the same binder, the “IC50, pseudovirus neutralization” value [9] was 0.0314 µg/mL, the “IC50, pseudovirus neutralization” value [10] was 0.0307 µg/mL and the “IC50, pseudovirus neutralization” value [11] was 0.0261 µg/mL. The “IC50, pseudovirus neutralization” value [12] was 0.256 µg/mL, the “IC50, pseudovirus neutralization” value [13] was 1.25 µg/mL and the “IC50, pseudovirus neutralization” value [14] was 0.634 µg/mL. The “IC50, pseudovirus neutralization” value [15] was 0.337 µg/mL.
